{
  "source": "patent US8615311B2",
  "about": "“Microelectorode array, methods for preparing the same and uses thereof” (Rutgers, The State University of New Jersey, priority 2010, dated 2013)",
  "format_in_all_cases": "cell-based, rat",
  "key": {"[1]": {"test_system": "Spinal cord explants", "experiment": "Axonal outgrowth from spinal cord explants with or without Ara-C in the medium", "settings": "1 μm Ara-C added to NB medium, after 13 days in culture, vs standard NB medium", "procedure": "Spinal cord explants are prepared using procedures known in the art. Briefly, pregnant Sprague Dawley rats were sacrificed by CO2 inhalation at gestational day 15, and pups were removed by Cesarean section. Spinal cord was removed posteriorly and transferred to a PDMS-lined petri dish in a drop of medium. The cord is then bisected longitudinally and finely minced transversely into sections 200-300 μm thick. Sections were suspended in NB medium plus 1% GlutaMAX supplement and 2% B27 supplement. Explants were then plated onto chemically or topographically patterned glass substrates or MEAS, all of which had been adsorbed overnight with laminin at 40 μg/ml in 10 μL of medium. Explants can be precisely positioned on the growth substrate during this step. In this experiment, explants were positions with the explant body over three contacts in the top row of the MEA, allowing space for axonal outgrowth over the other contacts. After 5 min, allowing for initial adhesion, enough medium was added to just cover the explant, and it was placed in an incubator at 5% CO2 and 37 deg C. Medium was replaced every 2 days.\nExplants were fixed and stained on DIV 13 to identify axonal and dendritic outgrowth. […] Five well-attached explants were imaged in each condition, and their outgrowth was quantified using ImageJ software (NIH, Bethesda Md.). […]"}, "[2]": {"test_system": "Myoblasts", "experiment": "Myoblast fusion and differentiation into myotubes on surfaces adsorbed with different coatings", "procedure": "Myoblasts were isolated and cultured as previously described. Briefly, pregnant Sprague Dawley rats were sacrificed by CO2 inhalation at gestational day 21, and pups were removed by Cesarean section. Hind limb muscles were removed, and tissue was finely minced and digested (20 min at 37° C.) in PBS containing 1.5 U/ml collagenase (type D, Roche, Mannheim, Germany) and 2.5 U/ml dispase (type II, Roche, Mannheim, Germany). Single cells were separated from debris, pelleted by centrifugation, and resuspended in growth medium consisting of Ham's F-10 medium plus 20% fetal bovine serum, 1% Penicillin/Streptomycin, (all from Invitrogen, Carlsbad, Calif.) and 2.5 ng/ml human b-FGF (Promega Corporation, Madison, Wis.). Cells were then plated into 75 cm^2 flasks and incubated for 24 hrs. Adherent cells were resuspended and plated onto PDMS substrates in differentiation medium consisting of Neurobasal medium including 2% B-27 supplement, 1% Penicillin/Streptomycin and 1% GlutaMAX (all from Invitrogen, Carlsbad, Calif.) at a surface density of 200,000 cells/cm^2. Prior to seeding, surfaces were plasma treated (O2 plasma for 120 S at 50 Watts) and adsorbed overnight with 40 μg/ml laminin (Sigma Aldrich, St. Louis, Mo.). Medium changes were performed every other day."}, "[3]": {"test_system": "Hippocampal neurons", "experiment": "Morphology and Sholl analysis (Bonfire program) of GFP-transfected hippocampal neurons treated with BDNF", "settings": "25 ng/ml BDNF", "procedure": "Hippocampal neurons were isolated from E18 rat embryos and cultured. Briefly, embryos were removed by Cesarian section at 18 days gestation and decapitated. The hippocampi were manually dissected under a microscope, and cells were triturated with a fire polished glass pipette tip, counted on a hemocytometer, and plated at a density of ˜1800 cells per mm^2 on 35 mm petri plates (Corning) coated with 1 mg/ml poly-D-lysine (Sigma-Aldrich). Cultures were maintained in Neurobasal medium containing penicillin, streptomycin, glutamine, and B27 supplement (NB; all purchased from Invitrogen).\nAt 5 days in vitro (DIV5), cells were transfected with cDNA encoding GFP using Effectene (Qiagen). The low efficiency of this transfection technique in this cell system allows the easy identification of the processes associated with single neurons. In the BDNF treatment groups, treatment occurred from DIV7-10, during which regular NB was replaced with NB containing 25 ng/ml BDNF. […] Cultures were fixed in 4% paraformaldehyde on DIV10 and immunostained with rat anti-GFP (a gift from Dr. Shu-Chan Hsu, Rutgers University) and MAP-2 (Sigma-Aldrich). Neurons were imaged in the GFP channel at 200× using an Olympus Optical IX50 microscope with a Cooke Sensicam CCD cooled camera, fluorescence imaging system, and ImagePro software (MediaCybernetics). Images were acquired in 8-bit TIFF format, measuring 512×640 pixels.\nAn embodiment Bonfire program is a series of custom scripts written in, for example, MATLAB (MathWorks), although it will be appreciated that any suitable programming language may be employed. Neuronal morphology was digitized in three stages based on the initial images. In the first stage, the semi-automated tools available through the NeuronJ plugin to ImageJ (NIH, Bethesda Md.) were used to define all neurite positions (FIG. 6(A-B)). The data for each neurite are exported using NeuronJ in the form of a series of nodes with defined positions in the X-Y plane, where nodes belonging to an individual neurite segment are linked by association. These tools allow the user to guide the tracing of each neuritic segment with course resolution by hand but reduce tracing time by using a curve-fitting algorithm to fine-tune the exact location of the nodes defining the neurite position.\nIn the second stage, portions of the embodiment Bonfire program were used to convert the strings of nodes provided by NeuronJ into SWC format for further manipulation. NeuronStudio is then used to define the pattern of connectivity between neurite segments (FIG. 6(C)). The transformation of the data into SWC format allows for the linkage of the simple strings of nodes defined previously into more complex branching structures. After linking is complete, another component of the embodiment Bonfire program checks the resulting structure for errors and non-linkages (FIG. 6(D)), based on the assumption that each neuritic segment may only give rise to two or less daughter segments. […] These two steps fully determine the structure of each cell's neuritic arbor in 2-dimensional space and encode it in a digital format.\nUsing these digitized neuritic arbors, a second component of the embodiment Bonfire program was then used to perform process identification and extract the following metrics: number of primary neurites, number of secondary neurites, number of branch points per cell, number of terminal neurite tips per cell, and Sholl analysis performed with a 3.0 μm ring interval (FIG. 6(E)). Sholl analysis is performed conceptually by drawing concentric circles around a cell body at incrementally increasing radii and counting the number of times each circle crosses a neuritic segment. The number of intersections is graphed as a function of radial distance from the cell body to give a quantitative representation of how neurite density varies spatially. […]"}, "[4]": {"settings": "DIV7-10, vs untreated control, data not shown"}},
  "data": [
    {"molecule": "Nc1ccn([C@@H]2O[C@H](CO)[C@@H](O)[C@@H]2O)c(=O)n1", "note": "[Ara-C]", "values": [
      {"measurement": "axonal outgrowth length (maximum axonal extension from explant body)", "setting": "[1]", "result": "did not appreciably reduce"}
    ]},
    {"molecule": "laminin", "values": [
      {"measurement": "myoblast fusion and maturation into striated myotubes", "setting": "[2]; laminin adsorbed surfaces", "result": "robust"},
      {"measurement": "myotube differentiation", "setting": "[2]; surface adsorbed with the substance, data not shown", "result": "promoted myotube differentiation"}
    ]},
    {"molecule": "BDNF: a well-studied extracellular factor that regulates neurite morphology (protein, UniProt P23560 19-247, looked up) Neurotrophic factor BDNF …: APMKEANIRGQGGLAYPGVRTHGTLESVNGPKAGSRGLTSLADTFEHVIEELLDEDQKVRPNEENNKDADLYTSRVMLSSQVPLEPPLLFLLEEYKNYLDAANMSMRVRRHSDPARRGELSVCDSISEWVTAADKKTAVDMSGGTVTVLEKVPVSKGQLKQYFYETKCNPMGYTKEGCRGIDKRHWNSQCRTTQSYVRALTMDSKKRIGWRFIRIDTSCVCTLTIKRGR", "values": [
      {"measurement": "average number of branch points per cell", "setting": "[3]; DIV7-10, vs untreated control", "result": "no change between conditions"},
      {"measurement": "distal neurites (total Sholl curve)", "setting": "[3]; DIV7-10, vs untreated control", "result": "no effect on distal neurites"},
      {"measurement": "number of primary neurites (primary extensions) per cell", "setting": "[3]; DIV7-10, vs untreated control", "result": "statistically significant increase"},
      {"measurement": "number of secondary neurites per cell", "setting": "[3]; DIV7-10, vs untreated control", "result": "does not reach statistical significance"},
      {"measurement": "number of terminal branches per cell", "setting": "[3]; DIV7-10, vs untreated control", "result": "no change between conditions"},
      {"measurement": "average process length", "setting": "[3]; [4]", "result": "no significant change"},
      {"measurement": "total arbor length", "setting": "[3]; [4]", "result": "no significant change"},
      {"measurement": "proximal neurites within the first 35 μm of the soma (total Sholl curve)", "setting": "[3]; DIV7-10, vs untreated control, global exposure in vitro", "result": "increases proximal neurites"},
      {"measurement": "number of Sholl intersections with terminal neurites", "setting": "[3]; DIV7-10, RIT labeling scheme Sholl analysis", "result": "increase"},
      {"measurement": "number of Sholl intersections with primary neurites", "setting": "[3]; DIV7-10, segment identity-specific Sholl analysis", "result": "increase"}
    ]}
  ]
}
